Results taken from patent publication US20230183713A1, “SITE-SPECIFIC RECOMBINASES FOR EFFICIENT AND SPECIFIC GENOME EDITING” (TECHNISCHE UNIVERSITÄt DRESDEN, published 2023).

Tests used:
[1] = target: T1, Cre recombinase monomer with Q311R mutation
T1 chain: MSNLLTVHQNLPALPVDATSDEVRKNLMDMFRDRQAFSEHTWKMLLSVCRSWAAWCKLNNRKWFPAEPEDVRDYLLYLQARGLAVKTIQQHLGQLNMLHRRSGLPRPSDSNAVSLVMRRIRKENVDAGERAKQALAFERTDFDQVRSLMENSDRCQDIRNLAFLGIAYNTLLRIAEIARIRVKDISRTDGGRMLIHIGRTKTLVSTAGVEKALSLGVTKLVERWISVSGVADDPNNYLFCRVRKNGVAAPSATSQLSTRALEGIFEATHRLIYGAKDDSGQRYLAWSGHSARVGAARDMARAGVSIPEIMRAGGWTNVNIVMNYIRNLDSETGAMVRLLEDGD

[2] = target: T2, Cre recombinase monomer with K201R mutation
T2 chain: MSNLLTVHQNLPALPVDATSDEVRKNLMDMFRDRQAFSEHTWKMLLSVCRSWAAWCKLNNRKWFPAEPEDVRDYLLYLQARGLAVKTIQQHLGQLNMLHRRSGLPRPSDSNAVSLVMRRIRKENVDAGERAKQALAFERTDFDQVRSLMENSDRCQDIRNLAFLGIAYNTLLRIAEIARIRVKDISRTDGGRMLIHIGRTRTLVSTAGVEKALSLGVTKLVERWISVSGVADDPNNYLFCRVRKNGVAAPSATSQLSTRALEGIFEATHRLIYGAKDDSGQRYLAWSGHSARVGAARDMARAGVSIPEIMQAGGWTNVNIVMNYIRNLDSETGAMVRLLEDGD

[3] = target: T3, Cre recombinase monomer with Y324T mutation
T3 chain: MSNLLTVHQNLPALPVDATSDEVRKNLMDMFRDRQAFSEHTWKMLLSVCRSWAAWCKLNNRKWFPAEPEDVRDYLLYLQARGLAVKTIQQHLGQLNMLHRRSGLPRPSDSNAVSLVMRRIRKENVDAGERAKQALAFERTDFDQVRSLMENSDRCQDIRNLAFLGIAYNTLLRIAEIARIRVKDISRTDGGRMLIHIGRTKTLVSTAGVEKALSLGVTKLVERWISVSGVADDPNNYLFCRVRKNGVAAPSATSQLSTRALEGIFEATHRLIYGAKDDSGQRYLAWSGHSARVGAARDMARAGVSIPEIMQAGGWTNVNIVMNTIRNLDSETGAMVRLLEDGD

[4] = target: T4, Cre recombinase monomer with E176V mutation
T4 chain: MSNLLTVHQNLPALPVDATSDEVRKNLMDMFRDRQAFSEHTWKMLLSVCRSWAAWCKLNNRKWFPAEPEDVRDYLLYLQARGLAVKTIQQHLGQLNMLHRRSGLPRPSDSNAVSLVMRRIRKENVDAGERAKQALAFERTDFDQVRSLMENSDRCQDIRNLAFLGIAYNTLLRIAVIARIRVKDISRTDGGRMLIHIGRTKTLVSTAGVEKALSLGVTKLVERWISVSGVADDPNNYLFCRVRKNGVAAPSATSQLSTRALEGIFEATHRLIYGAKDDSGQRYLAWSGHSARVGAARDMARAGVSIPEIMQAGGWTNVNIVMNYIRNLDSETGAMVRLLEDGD

[5] = target: T5, Cre recombinase monomer with E176H mutation
T5 chain: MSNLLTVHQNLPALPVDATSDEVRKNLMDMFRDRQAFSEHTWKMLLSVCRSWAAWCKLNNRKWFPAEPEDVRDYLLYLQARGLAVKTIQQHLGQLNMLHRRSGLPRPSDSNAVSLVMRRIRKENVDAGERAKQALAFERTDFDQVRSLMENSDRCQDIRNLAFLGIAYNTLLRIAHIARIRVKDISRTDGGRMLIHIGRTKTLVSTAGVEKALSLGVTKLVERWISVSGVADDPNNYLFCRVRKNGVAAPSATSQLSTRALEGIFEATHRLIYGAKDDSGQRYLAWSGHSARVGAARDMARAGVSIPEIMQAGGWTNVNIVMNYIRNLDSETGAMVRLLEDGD

B1: Cre recombinase monomer with E176Y mutation (protein)
chain: MSNLLTVHQNLPALPVDATSDEVRKNLMDMFRDRQAFSEHTWKMLLSVCRSWAAWCKLNNRKWFPAEPEDVRDYLLYLQARGLAVKTIQQHLGQLNMLHRRSGLPRPSDSNAVSLVMRRIRKENVDAGERAKQALAFERTDFDQVRSLMENSDRCQDIRNLAFLGIAYNTLLRIAYIARIRVKDISRTDGGRMLIHIGRTKTLVSTAGVEKALSLGVTKLVERWISVSGVADDPNNYLFCRVRKNGVAAPSATSQLSTRALEGIFEATHRLIYGAKDDSGQRYLAWSGHSARVGAARDMARAGVSIPEIMQAGGWTNVNIVMNYIRNLDSETGAMVRLLEDGD
Median dimer activity (recombination on loxP) [1]: 79% | Median dimer activity (recombination on loxP) [2]: 39%

B2: Cre recombinase monomer with K201L mutation (protein)
chain: MSNLLTVHQNLPALPVDATSDEVRKNLMDMFRDRQAFSEHTWKMLLSVCRSWAAWCKLNNRKWFPAEPEDVRDYLLYLQARGLAVKTIQQHLGQLNMLHRRSGLPRPSDSNAVSLVMRRIRKENVDAGERAKQALAFERTDFDQVRSLMENSDRCQDIRNLAFLGIAYNTLLRIAEIARIRVKDISRTDGGRMLIHIGRTLTLVSTAGVEKALSLGVTKLVERWISVSGVADDPNNYLFCRVRKNGVAAPSATSQLSTRALEGIFEATHRLIYGAKDDSGQRYLAWSGHSARVGAARDMARAGVSIPEIMQAGGWTNVNIVMNYIRNLDSETGAMVRLLEDGD
Median dimer activity (recombination on loxP) [3]: 25% | Median dimer activity (recombination on loxP) [1]: 92%

B3: Cre recombinase monomer with E176M mutation (protein)
chain: MSNLLTVHQNLPALPVDATSDEVRKNLMDMFRDRQAFSEHTWKMLLSVCRSWAAWCKLNNRKWFPAEPEDVRDYLLYLQARGLAVKTIQQHLGQLNMLHRRSGLPRPSDSNAVSLVMRRIRKENVDAGERAKQALAFERTDFDQVRSLMENSDRCQDIRNLAFLGIAYNTLLRIAMIARIRVKDISRTDGGRMLIHIGRTKTLVSTAGVEKALSLGVTKLVERWISVSGVADDPNNYLFCRVRKNGVAAPSATSQLSTRALEGIFEATHRLIYGAKDDSGQRYLAWSGHSARVGAARDMARAGVSIPEIMQAGGWTNVNIVMNYIRNLDSETGAMVRLLEDGD
Median dimer activity (recombination on loxP) [1]: 82% | Median dimer activity (recombination on loxP) [2]: 35%

B4: Cre recombinase monomer with R173Y mutation (protein)
chain: MSNLLTVHQNLPALPVDATSDEVRKNLMDMFRDRQAFSEHTWKMLLSVCRSWAAWCKLNNRKWFPAEPEDVRDYLLYLQARGLAVKTIQQHLGQLNMLHRRSGLPRPSDSNAVSLVMRRIRKENVDAGERAKQALAFERTDFDQVRSLMENSDRCQDIRNLAFLGIAYNTLLYIAEIARIRVKDISRTDGGRMLIHIGRTKTLVSTAGVEKALSLGVTKLVERWISVSGVADDPNNYLFCRVRKNGVAAPSATSQLSTRALEGIFEATHRLIYGAKDDSGQRYLAWSGHSARVGAARDMARAGVSIPEIMQAGGWTNVNIVMNYIRNLDSETGAMVRLLEDGD
Median dimer activity (recombination on loxP) [1]: 92% | Median dimer activity (recombination on loxP) [4]: 35%

B5: Cre recombinase monomer with R173E mutation (protein)
chain: MSNLLTVHQNLPALPVDATSDEVRKNLMDMFRDRQAFSEHTWKMLLSVCRSWAAWCKLNNRKWFPAEPEDVRDYLLYLQARGLAVKTIQQHLGQLNMLHRRSGLPRPSDSNAVSLVMRRIRKENVDAGERAKQALAFERTDFDQVRSLMENSDRCQDIRNLAFLGIAYNTLLEIAEIARIRVKDISRTDGGRMLIHIGRTKTLVSTAGVEKALSLGVTKLVERWISVSGVADDPNNYLFCRVRKNGVAAPSATSQLSTRALEGIFEATHRLIYGAKDDSGQRYLAWSGHSARVGAARDMARAGVSIPEIMQAGGWTNVNIVMNYIRNLDSETGAMVRLLEDGD
Median dimer activity (recombination on loxP) [1]: 80% | Median dimer activity (recombination on loxP) [5]: 32%

B6: Cre recombinase monomer with R173P mutation (protein)
chain: MSNLLTVHQNLPALPVDATSDEVRKNLMDMFRDRQAFSEHTWKMLLSVCRSWAAWCKLNNRKWFPAEPEDVRDYLLYLQARGLAVKTIQQHLGQLNMLHRRSGLPRPSDSNAVSLVMRRIRKENVDAGERAKQALAFERTDFDQVRSLMENSDRCQDIRNLAFLGIAYNTLLPIAEIARIRVKDISRTDGGRMLIHIGRTKTLVSTAGVEKALSLGVTKLVERWISVSGVADDPNNYLFCRVRKNGVAAPSATSQLSTRALEGIFEATHRLIYGAKDDSGQRYLAWSGHSARVGAARDMARAGVSIPEIMQAGGWTNVNIVMNYIRNLDSETGAMVRLLEDGD
Median dimer activity (recombination on loxP) [3]: 47% | Median dimer activity (recombination on loxP) [1]: 94%

B7: Cre recombinase monomer with R173V mutation (protein)
chain: MSNLLTVHQNLPALPVDATSDEVRKNLMDMFRDRQAFSEHTWKMLLSVCRSWAAWCKLNNRKWFPAEPEDVRDYLLYLQARGLAVKTIQQHLGQLNMLHRRSGLPRPSDSNAVSLVMRRIRKENVDAGERAKQALAFERTDFDQVRSLMENSDRCQDIRNLAFLGIAYNTLLVIAEIARIRVKDISRTDGGRMLIHIGRTKTLVSTAGVEKALSLGVTKLVERWISVSGVADDPNNYLFCRVRKNGVAAPSATSQLSTRALEGIFEATHRLIYGAKDDSGQRYLAWSGHSARVGAARDMARAGVSIPEIMQAGGWTNVNIVMNYIRNLDSETGAMVRLLEDGD
Median dimer activity (recombination on loxP) [1]: 92% | Median dimer activity (recombination on loxP) [4]: 53%

B8: Cre recombinase monomer with K201A mutation (protein)
chain: MSNLLTVHQNLPALPVDATSDEVRKNLMDMFRDRQAFSEHTWKMLLSVCRSWAAWCKLNNRKWFPAEPEDVRDYLLYLQARGLAVKTIQQHLGQLNMLHRRSGLPRPSDSNAVSLVMRRIRKENVDAGERAKQALAFERTDFDQVRSLMENSDRCQDIRNLAFLGIAYNTLLRIAEIARIRVKDISRTDGGRMLIHIGRTATLVSTAGVEKALSLGVTKLVERWISVSGVADDPNNYLFCRVRKNGVAAPSATSQLSTRALEGIFEATHRLIYGAKDDSGQRYLAWSGHSARVGAARDMARAGVSIPEIMQAGGWTNVNIVMNYIRNLDSETGAMVRLLEDGD
Median dimer activity (recombination on loxP) [1]: 95% | Median dimer activity (recombination on loxP) [2]: 64%

B9: Cre recombinase monomer with K201M mutation (protein)
chain: MSNLLTVHQNLPALPVDATSDEVRKNLMDMFRDRQAFSEHTWKMLLSVCRSWAAWCKLNNRKWFPAEPEDVRDYLLYLQARGLAVKTIQQHLGQLNMLHRRSGLPRPSDSNAVSLVMRRIRKENVDAGERAKQALAFERTDFDQVRSLMENSDRCQDIRNLAFLGIAYNTLLRIAEIARIRVKDISRTDGGRMLIHIGRTMTLVSTAGVEKALSLGVTKLVERWISVSGVADDPNNYLFCRVRKNGVAAPSATSQLSTRALEGIFEATHRLIYGAKDDSGQRYLAWSGHSARVGAARDMARAGVSIPEIMQAGGWTNVNIVMNYIRNLDSETGAMVRLLEDGD
Median dimer activity (recombination on loxP) [1]: 93% | Median dimer activity (recombination on loxP) [2]: 76%

B10: Cre recombinase monomer with R173D mutation (protein)
chain: MSNLLTVHQNLPALPVDATSDEVRKNLMDMFRDRQAFSEHTWKMLLSVCRSWAAWCKLNNRKWFPAEPEDVRDYLLYLQARGLAVKTIQQHLGQLNMLHRRSGLPRPSDSNAVSLVMRRIRKENVDAGERAKQALAFERTDFDQVRSLMENSDRCQDIRNLAFLGIAYNTLLDIAEIARIRVKDISRTDGGRMLIHIGRTKTLVSTAGVEKALSLGVTKLVERWISVSGVADDPNNYLFCRVRKNGVAAPSATSQLSTRALEGIFEATHRLIYGAKDDSGQRYLAWSGHSARVGAARDMARAGVSIPEIMQAGGWTNVNIVMNYIRNLDSETGAMVRLLEDGD
Median dimer activity (recombination on loxP) [1]: 89% | Median dimer activity (recombination on loxP) [4]: 53% | Median dimer activity (recombination on loxP) [5]: 29%
